The source of these data is patent publication US20250009852A1, “DEPLETING EGFR AND HER2 OVERCOMES RESISTANCE TO EGFR INHIBITORS IN COLORECTAL CANCER” (Health Research, Inc., priority 2021, published 2025).

Test [1] deals with HER3, IGF1R, MET, SRC, AKT, ERK, MEK, NRAS, HRAS, caspase 3. The test is described as follows: Western blotting of tumor homogenates: other signaling proteins. The format is in vivo, mouse. The procedure:
To prepare whole cell lysates, cells were washed with PBS twice, mixed with 1× cell lysis buffer from Cell Signaling Technology supplemented with 2 mM PMSF and a protease inhibitor cocktail from Roche Applied Science, placed on ice for 10 min, sonicated at 0-4° C. to enhance cell lysis using a Branson Model 450 sonifier, and finally centrifuged at 13,000 g for 10 min at 4° C., and the supernatant fraction is collected as whole cell lysate. Tumor and samples were mixed with RIPA buffer (25 mM Tris-HCl, PH7.6, 150 mM NaCl, 1% Nonidet P-40, 1% sodium deoxycholate, and 0.1% SDS), which was supplemented with 2 mM PMSF, the protease inhibitor cocktail mentioned above, phosphatase inhibitor cocktail 2 and phosphatase inhibitor cocktail 3 from Sigma-Aldrich at 14.3 μl buffer per mg tissue, and homogenized in a Dounce homogenizer. The homogenates were cleared by centrifugation at 13,000 g for 15 min at 4° C.
Protein concentrations in all samples were measured using the BCA Assay Kit. For Western blotting, each sample was mixed with 4× loading dye, heated for 5 min at 95° C., and resolved by SDS-PAGE (8-12.5%). Proteins were transferred to polyvinylidene fluoride membrane, probed with specific antibodies, and detected using either Luminata Classico (Millipore) or Luminata Cresendo (Millipore). […] The beads were washed three times with IP buffer, suspended in 2× SDS loading buffer, boiled for 5 min, and analyzed by Western blotting.
SCID mice (C.B.17 SCID) were bred by the Laboratory Animal Shared Resource at Roswell Park Comprehensive Cancer Center. […] Subcutaneous tumor volume was measured using length ×width^2÷2. Tumor volume was measured three times each week. Orthotopic tumor growth was monitored by bioluminescence weekly. Mice were given D-luciferin (150 mg/kg) by ip and anesthetized with isoflurane, and tumor burden was measured by bioluminescence using the IVIS Spectrum In Vivo Imaging System (PerkinElmer). Drug treatment was started when significant tumor growth was detected. […] The mice were closely monitored for sign of adverse effects and weighed three times each week.

Another test concerns HCT116 tumors. The test is described as follows: Subcutaneous HCT116 tumors in SCID mice. The format is in vivo, mouse. Particulars: sc HCT116 tumors. The procedure: SCID mice (C.B.17 SCID) were bred by the Laboratory Animal Shared Resource at Roswell Park Comprehensive Cancer Center. Male mice at 7-8 weeks of age were used. All mouse experiments were approved by the Institutional Animal Care and Use Committee at Roswell Park Comprehensive Cancer Center under protocol 1022M. We established subcutaneous tumors by inoculating 1×10^6 HCT116 cells, 4×10^6 HT29 cells, or 2×10^6 SW48 cells to the flank of each mouse in 100 μl of serum free medium. Colon patient-derived xenograft (PDX) 14650 was established from a liver metastatic lesion in a patient treated at Roswell Park Comprehensive Cancer Center. Tumor fragments (˜20 mm^3) from donor mice were implanted into the flank of each mouse subcutaneously using a trocar. Orthotopic colon tumors in mice were established by inoculating HCT116 cells stably transfected with firefly luciferase (2×10^6 cells in 50 μl of 50% serum-free medium and 50% Matrigel) to the caecum wall of each mouse. Mice in each tumor model were randomized cage-wise into treatment groups using Research Randomizer (www.randomizer.org). Subcutaneous tumor volume was measured using length ×width^2÷2. Tumor volume was measured three times each week. Orthotopic tumor growth was monitored by bioluminescence weekly. Mice were given D-luciferin (150 mg/kg) by ip and anesthetized with isoflurane, and tumor burden was measured by bioluminescence using the IVIS Spectrum In Vivo Imaging System (PerkinElmer). Drug treatment was started when significant tumor growth was detected. EP (0.5 mg/kg) was administered to mice ip once daily. […] Aderbasib (60 mg/kg) was administered to mice by gavage once daily. 5-FU (35 mg/kg) was administered to mice ip twice weekly (Monday and Thursday). EP, PEPD^G278D and 5-FU were administered to mice in PBS. Aderbasib was first dissolved in DMSO and then diluted by PBS (final 5% DMSO by volume). Each agent was administered to mice at 0.1 ml volume per 20 g body weight. When a mouse was given multiple agents on the same day, the agents were dosed at approximately 30 min intervals. The mice were closely monitored for sign of adverse effects and weighed three times each week. Mice were sacrificed 24-48 hours after the last treatment, at which point the tumors were promptly removed, snap frozen and stored at −80° C. for later analysis. Some tumors were fixed in 10% buffered formalin, paraffin embedded, cut at 4 μm, and stained with hematoxylin and eosin (H & E) for histological analysis.

Regarding `COC(=O)N1CC2(CC2)C[C@H](C(=O)NO)[C@H]1C(=O)N1CC=C(c2ccccc2)CC1` [aderbasib], the “expression or phosphorylation of the proteins analyzed in tumors” value in test [1] (HCT116 and HT29 tumors, single agent) is “neither EP nor aderbasib had any effect”. In the test with HCT116 tumors (aderbasib alone 60 mg/kg by gavage daily), the tumor growth entry is recorded as “ineffective”.

B1: PEPD^G278D: recombinant and enzymatically inactive mutant of human peptidase D (PEPD), with replacement of glycine 278 by aspartic acid (protein)
chain: AAATGPSFWLGNETLKVPLALFALNRQRLCERLRKNPAVQAGSIVVLQGGEETQRYCTDTGVLFLQESFFHWAFGVTEPGCYGVIDVDTGKSTLFVPRLPASHATWMGKIHSKEHFKEKYAVDDVQYVDEIASVLTSQKPSVLLTLRGVNTDSGSVCREASFDGISKFEVNNTILHPEIVESRVFKTDMELEVLRYTNKISSEAHREVMKAVKVGMKEYGLESLFEHYCYSRGGMRHSSYTCICGSGENSAVLHYGHAGAPNDRTIQNGDMCLFDMDGEYYSVASDITCSFPRNGKFTADQKAVYEAVLLSSRAVMGAMKPGDWWPDIDRLADRIHLEELAHMGILSGSVDAMVQAHLGAVFMPHGLGHFLGIDVHDVGGYPEGVERIDEPGLRSLRTARHLQPGMVLTVEPGIYFIDHLLDEALADPARASFLNREVLQRFRGFGGVRIEEDVVVIDSGIELLTCVPRTVEEIEACMAGCDKAFTPFSGPK
modifications: left off: small tags and cut ends
In the case of B1, in test [1] (SW48 tumors, 24 h after the final dose), the “ERK phosphorylation in tumors” value is reported as “decreased ERK phosphorylation”. For the same molecule, the tumor growth result in the test with HCT116 tumors (EP plus PEPD^G278D 4 mg/kg ip three times weekly, or cetuximab 15 mg/kg ip twice weekly) is recorded as “neither agent inhibited the growth”; with HCT116 tumors (EP plus PEPD^G278D 8 mg/kg ip thrice weekly), “did not inhibit tumor growth”.
